# Assays:
# [1] = target: T1, α4β2 (Homo sapiens, UniProt P17787+P43681); experiment: Ion channel panel (IonWorks Barracuda): α4β2; assay type: cell-based; details: 100% = no change, <100% = inhibition
# T1 construct: host or cells: HEK293 or CHO
# Method in brief: (§1)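 Peptides were tested in duplicate at final 20 μM and 200 nM, with concentration set by amino acid analysis, in HEPES-buffered saline. They were applied for at least 5 min to HEK293 or CHO cells transfected with each channel. Currents were expressed as % inhibition, 1-(Ipeptide/Icontrol)×100, or % activation, Ipeptide/Icontrol×100, against a channel-matched reference compound.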
# [2] = target: T2, 5HT3a (Homo sapiens, UniProt P46098); experiment: Ion channel panel (IonWorks Barracuda): 5HT3a; assay type: cell-based
# T2 construct: host or cells: HEK293 or CHO
# T2 sequence (P46098 whole entry, looked up): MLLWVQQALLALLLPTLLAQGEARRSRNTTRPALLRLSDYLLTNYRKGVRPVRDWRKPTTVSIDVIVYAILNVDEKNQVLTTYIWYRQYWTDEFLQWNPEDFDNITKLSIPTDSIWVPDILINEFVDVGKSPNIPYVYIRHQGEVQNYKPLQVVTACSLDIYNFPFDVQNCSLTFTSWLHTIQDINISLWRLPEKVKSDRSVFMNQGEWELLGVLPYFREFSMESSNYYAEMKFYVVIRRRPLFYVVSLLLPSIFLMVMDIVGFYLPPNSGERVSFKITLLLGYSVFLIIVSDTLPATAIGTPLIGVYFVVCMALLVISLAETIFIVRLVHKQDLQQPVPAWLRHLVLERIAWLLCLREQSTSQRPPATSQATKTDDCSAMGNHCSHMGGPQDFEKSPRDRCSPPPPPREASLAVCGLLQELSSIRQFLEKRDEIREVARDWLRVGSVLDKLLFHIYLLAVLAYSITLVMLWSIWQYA
# Method in brief: as §1
# [3] = system: GABA; experiment: Ion channel panel (IonWorks Barracuda): GABA; assay type: cell-based; details: 100% = no change, <100% = inhibition
# Method in brief: as §1
# [4] = target: T3, Nav1.7 (Homo sapiens, UniProt Q15858); experiment: cell-based; assay type: cell-based; details: 100% = no change; for Activity of Nav1.7 with peptide, expressed as a percentage of the reference compound: peptide at 0.2 μM; for Activity of Nav1.7 with peptide (percentage of the reference compound): peptide at 20 μM
# T3 construct: host or cells: HEK293 or CHO
# T3 sequence (Q15858 whole entry): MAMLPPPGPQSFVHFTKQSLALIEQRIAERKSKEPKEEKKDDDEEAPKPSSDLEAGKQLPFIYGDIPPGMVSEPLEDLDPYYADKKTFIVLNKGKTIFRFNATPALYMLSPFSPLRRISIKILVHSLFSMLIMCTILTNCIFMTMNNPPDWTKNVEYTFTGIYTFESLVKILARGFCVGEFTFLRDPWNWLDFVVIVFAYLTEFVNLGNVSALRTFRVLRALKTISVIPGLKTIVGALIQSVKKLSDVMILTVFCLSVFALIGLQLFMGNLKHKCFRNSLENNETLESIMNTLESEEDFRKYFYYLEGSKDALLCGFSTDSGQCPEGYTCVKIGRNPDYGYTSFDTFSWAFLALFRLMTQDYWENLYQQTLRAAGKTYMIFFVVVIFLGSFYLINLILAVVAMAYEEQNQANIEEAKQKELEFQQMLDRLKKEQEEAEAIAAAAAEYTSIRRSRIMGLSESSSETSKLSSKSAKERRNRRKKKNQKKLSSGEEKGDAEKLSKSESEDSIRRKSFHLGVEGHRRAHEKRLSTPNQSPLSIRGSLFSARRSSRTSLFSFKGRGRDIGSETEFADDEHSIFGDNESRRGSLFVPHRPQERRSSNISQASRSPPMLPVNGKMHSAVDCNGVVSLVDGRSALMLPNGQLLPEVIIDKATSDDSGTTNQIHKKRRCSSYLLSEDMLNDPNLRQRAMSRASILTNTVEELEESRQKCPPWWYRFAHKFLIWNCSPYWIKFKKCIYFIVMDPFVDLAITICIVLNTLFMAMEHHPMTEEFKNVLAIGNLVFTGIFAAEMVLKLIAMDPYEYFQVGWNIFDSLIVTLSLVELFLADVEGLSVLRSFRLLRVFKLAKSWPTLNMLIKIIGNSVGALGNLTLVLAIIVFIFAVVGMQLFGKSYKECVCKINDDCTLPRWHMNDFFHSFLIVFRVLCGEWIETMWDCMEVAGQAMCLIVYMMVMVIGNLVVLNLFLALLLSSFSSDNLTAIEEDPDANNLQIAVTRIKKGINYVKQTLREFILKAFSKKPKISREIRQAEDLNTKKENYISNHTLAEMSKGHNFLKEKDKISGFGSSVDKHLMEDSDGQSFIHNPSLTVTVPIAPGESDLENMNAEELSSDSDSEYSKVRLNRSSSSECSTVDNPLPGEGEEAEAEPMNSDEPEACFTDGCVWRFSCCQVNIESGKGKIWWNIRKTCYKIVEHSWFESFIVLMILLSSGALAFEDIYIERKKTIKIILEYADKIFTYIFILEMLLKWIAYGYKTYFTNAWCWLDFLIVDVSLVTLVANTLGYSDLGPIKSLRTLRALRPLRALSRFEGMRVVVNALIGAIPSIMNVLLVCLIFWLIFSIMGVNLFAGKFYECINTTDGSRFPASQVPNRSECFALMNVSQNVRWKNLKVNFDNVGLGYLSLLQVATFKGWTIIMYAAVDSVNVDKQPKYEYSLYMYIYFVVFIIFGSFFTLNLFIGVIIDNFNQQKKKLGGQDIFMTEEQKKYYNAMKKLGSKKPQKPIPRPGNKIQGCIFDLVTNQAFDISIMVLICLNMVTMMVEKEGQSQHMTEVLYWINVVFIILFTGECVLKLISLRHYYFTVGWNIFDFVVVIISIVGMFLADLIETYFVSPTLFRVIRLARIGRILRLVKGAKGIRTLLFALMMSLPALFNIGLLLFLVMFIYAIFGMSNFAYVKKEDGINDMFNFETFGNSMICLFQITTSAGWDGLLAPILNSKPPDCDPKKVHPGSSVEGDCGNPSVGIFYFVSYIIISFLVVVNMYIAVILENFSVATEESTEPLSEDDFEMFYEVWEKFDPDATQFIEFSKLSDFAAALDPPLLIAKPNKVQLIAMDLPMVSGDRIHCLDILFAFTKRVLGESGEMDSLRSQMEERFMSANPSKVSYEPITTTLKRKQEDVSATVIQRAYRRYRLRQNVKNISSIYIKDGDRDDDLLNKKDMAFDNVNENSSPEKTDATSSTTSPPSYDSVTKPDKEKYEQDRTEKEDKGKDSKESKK
# [5] = target: hERG (Homo sapiens, UniProt Q12809); experiment: in vitro; details: 100% = no change, <100% = inhibition
# Method in brief: as §1
# [6] = target: Nav1.5 (Homo sapiens, UniProt Q14524); experiment: in vitro; details: 100% = no change; for Activity of Nav1.5 with peptide, expressed as a percentage of the reference compound: peptide at 0.2 μM; for Activity of Nav1.5 with peptide (percentage of the reference compound): peptide at 20 μM
# Sequence of Nav1.5 (Q14524 whole entry): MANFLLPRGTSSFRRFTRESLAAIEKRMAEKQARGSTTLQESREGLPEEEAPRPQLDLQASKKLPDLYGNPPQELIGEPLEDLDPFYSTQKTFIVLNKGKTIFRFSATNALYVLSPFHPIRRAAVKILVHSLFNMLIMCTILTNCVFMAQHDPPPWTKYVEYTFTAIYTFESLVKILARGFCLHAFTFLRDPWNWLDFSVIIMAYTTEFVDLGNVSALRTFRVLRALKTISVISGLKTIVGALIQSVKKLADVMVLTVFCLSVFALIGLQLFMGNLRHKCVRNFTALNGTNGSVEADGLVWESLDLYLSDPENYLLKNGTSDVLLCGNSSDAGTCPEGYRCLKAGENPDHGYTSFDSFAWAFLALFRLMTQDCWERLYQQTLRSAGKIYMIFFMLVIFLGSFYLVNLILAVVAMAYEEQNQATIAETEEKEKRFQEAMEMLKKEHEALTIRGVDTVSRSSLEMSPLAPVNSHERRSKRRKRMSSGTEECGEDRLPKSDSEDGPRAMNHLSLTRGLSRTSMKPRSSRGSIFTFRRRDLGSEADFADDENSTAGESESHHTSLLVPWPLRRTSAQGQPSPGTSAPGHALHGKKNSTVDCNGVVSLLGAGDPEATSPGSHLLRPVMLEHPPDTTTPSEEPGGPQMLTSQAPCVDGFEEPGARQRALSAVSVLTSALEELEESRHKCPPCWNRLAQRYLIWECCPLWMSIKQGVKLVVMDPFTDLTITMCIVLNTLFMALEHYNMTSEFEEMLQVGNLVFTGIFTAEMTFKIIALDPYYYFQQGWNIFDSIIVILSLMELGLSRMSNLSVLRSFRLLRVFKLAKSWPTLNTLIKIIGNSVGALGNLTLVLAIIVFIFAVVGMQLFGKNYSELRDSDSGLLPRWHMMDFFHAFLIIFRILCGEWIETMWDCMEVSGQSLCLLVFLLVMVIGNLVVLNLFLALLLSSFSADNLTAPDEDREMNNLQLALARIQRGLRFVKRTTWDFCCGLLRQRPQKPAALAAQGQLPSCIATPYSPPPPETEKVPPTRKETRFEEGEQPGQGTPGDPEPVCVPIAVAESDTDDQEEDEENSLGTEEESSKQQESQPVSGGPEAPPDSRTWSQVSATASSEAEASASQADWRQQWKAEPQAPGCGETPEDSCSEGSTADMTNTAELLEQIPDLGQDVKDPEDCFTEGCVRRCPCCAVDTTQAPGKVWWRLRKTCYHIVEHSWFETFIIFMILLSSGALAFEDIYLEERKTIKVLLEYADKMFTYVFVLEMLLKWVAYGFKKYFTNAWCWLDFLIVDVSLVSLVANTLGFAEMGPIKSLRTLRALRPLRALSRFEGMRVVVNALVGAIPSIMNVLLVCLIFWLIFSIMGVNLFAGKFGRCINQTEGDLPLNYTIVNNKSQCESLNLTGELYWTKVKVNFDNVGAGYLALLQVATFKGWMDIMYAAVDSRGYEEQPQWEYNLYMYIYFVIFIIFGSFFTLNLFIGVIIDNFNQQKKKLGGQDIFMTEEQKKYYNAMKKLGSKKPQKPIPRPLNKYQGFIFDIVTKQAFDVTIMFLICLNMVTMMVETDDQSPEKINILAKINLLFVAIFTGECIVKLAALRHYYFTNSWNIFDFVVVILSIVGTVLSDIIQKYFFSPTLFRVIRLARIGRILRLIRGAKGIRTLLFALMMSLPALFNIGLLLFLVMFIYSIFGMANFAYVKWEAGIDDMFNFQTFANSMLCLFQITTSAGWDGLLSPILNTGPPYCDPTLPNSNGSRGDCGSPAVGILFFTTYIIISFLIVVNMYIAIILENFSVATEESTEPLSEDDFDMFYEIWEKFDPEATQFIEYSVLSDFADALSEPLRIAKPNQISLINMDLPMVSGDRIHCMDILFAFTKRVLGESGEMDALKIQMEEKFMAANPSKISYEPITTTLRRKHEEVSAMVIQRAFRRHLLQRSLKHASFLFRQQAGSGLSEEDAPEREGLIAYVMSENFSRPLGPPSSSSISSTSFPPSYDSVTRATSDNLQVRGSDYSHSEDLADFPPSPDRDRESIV
# Method in brief: as §1
# [7] = target: T4, Kv1.1 (Homo sapiens, UniProt Q09470); experiment: cell-based; assay type: cell-based; details: 100% = no change, <100% = inhibition
# T4 construct: host or cells: HEK293 or CHO
# T4 sequence (Q09470 whole entry): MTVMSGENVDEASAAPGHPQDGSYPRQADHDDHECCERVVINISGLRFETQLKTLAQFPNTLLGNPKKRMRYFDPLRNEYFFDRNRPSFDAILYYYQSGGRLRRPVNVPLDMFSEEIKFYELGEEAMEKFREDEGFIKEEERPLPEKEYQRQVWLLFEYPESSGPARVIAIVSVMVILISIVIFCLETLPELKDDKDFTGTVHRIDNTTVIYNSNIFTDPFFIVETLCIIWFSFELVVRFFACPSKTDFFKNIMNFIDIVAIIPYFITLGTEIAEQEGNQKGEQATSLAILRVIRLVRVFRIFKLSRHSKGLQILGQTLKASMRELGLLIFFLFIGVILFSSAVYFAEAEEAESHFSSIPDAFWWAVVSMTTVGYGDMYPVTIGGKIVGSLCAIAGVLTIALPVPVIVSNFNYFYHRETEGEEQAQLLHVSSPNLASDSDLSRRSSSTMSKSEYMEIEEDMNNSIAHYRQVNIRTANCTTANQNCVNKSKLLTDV
# Method in brief: as §1
# [8] = target: T5, Kv1.3 (Homo sapiens, UniProt P22001); experiment: cell-based; assay type: cell-based; details: 100% = no change, <100% = inhibition
# T5 construct: host or cells: HEK293 or CHO
# Method in brief: as §1
# [9] = target: T6, Kv1.2 (Homo sapiens, UniProt P16389); experiment: cell-based; assay type: cell-based; details: 100% = no change, <100% = inhibition
# T6 construct: host or cells: HEK293 or CHO
# T6 sequence (P16389 whole entry): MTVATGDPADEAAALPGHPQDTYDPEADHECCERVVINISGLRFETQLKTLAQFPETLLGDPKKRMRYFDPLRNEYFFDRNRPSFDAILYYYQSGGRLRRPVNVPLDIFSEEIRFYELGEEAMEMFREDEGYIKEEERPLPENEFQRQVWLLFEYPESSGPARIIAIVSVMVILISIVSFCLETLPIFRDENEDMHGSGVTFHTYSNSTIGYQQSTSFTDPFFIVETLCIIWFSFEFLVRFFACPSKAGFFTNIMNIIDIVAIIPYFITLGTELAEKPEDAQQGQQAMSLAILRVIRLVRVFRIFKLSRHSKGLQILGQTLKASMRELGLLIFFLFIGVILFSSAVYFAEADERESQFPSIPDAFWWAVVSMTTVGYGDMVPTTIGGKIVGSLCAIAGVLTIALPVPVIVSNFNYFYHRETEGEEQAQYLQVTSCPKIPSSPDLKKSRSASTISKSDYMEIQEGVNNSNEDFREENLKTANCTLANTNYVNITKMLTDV
# Method in brief: as §1
# [10] = target: T7, α3β4 (Homo sapiens, UniProt P30926+P32297); experiment: Ion channel panel (IonWorks Barracuda): α3β4; assay type: cell-based; details: 100% = no change, <100% = inhibition
# T7 construct: host or cells: HEK293 or CHO
# Method in brief: as §1
# [11] = target: T8, TRPV1 (Homo sapiens, UniProt Q8NER1); experiment: Ion channel panel (IonWorks Barracuda): TRPV1; assay type: cell-based; details: 100% = no change, <100% = inhibition
# T8 construct: host or cells: HEK293 or CHO
# Method in brief: as §1
# [12] = target: T9, TRPA1 (Homo sapiens, UniProt O75762); experiment: Ion channel panel (IonWorks Barracuda): TRPA1; assay type: cell-based; details: 100% = no change, <100% = inhibition
# T9 construct: host or cells: HEK293 or CHO
# Method in brief: as §1
# [13] = target: T10, Cav2.2 (Homo sapiens, UniProt Q00975); experiment: cell-based; details: 100% = no change, <100% = inhibition
# T10 construct: host or cells: HEK293 or CHO
# Method in brief: as §1
# [14] = target: T11, Kv2.1 (Homo sapiens, UniProt Q14721); experiment: cell-based; details: 100% = no change, <100% = inhibition
# T11 construct: host or cells: HEK293 or CHO
# Method in brief: as §1
# [15] = target: T12, Cav2.1 (Homo sapiens, UniProt O00555); experiment: cell-based; details: 100% = no change, <100% = inhibition
# T12 construct: host or cells: HEK293 or CHO
# Method in brief: as §1
# [16] = target: T13, NR2B (Homo sapiens, UniProt Q13224); experiment: Ion channel panel (IonWorks Barracuda): NR2B; assay type: cell-based; details: 100% = no change, <100% = inhibition
# T13 construct: host or cells: HEK293 or CHO
# Method in brief: as §1
# [17] = target: T14, Kir2.1 (Homo sapiens, UniProt P63252); experiment: Ion channel panel (IonWorks Barracuda): Kir2.1; assay type: cell-based; details: 100% = no change, <100% = inhibition
# T14 construct: host or cells: HEK293 or CHO
# Method in brief: as §1
# [18] = target: T15, NR2A (Homo sapiens, UniProt Q12879); experiment: Ion channel panel (IonWorks Barracuda): NR2A; assay type: cell-based; details: 100% = no change, <100% = inhibition
# T15 construct: host or cells: HEK293 or CHO
# Method in brief: as §1
# [19] = first of two Nav1.7 columns (probably TP1)
# [20] = second of two Nav1.7 columns (probably TP2)
# [21] = first of two Nav1.5 columns (probably TP1)
# [22] = second of two Nav1.5 columns (probably TP2)
substance,measurement,setting,value
36 (GSAQEPVKGPVSTKPGSCPIILIRCAMLNPPNRCLKDTDCPGIKKCCEGSCGMACFVPQ) [compound 36],"Activity of a4b2 with peptide, expressed as a percentage of the reference compound",[1]; peptide at 0.2 μM,62%
same,Activity of a4b2 with peptide (percentage of the reference compound),[1]; peptide at 20 μM,57%
same,Activity of 5HT3a with peptide (percentage of the reference compound),[2],83%
same,"Activity of 5HT3a with peptide, expressed as a percentage of the reference compound",[2],81%
same,"Activity of GABA with peptide, expressed as a percentage of the reference compound",[3]; peptide at 0.2 μM,118%
same,Activity of GABA with peptide (percentage of the reference compound),[3]; peptide at 20 μM,106%
same,"Activity of Nav1.7 with peptide, expressed as a percentage of the reference compound",[4]; [19],108%
same,"Activity of Nav1.7 with peptide, expressed as a percentage of the reference compound",[4]; [20],118%
same,Activity of Nav1.7 with peptide (percentage of the reference compound),[4]; [19],91%
same,Activity of Nav1.7 with peptide (percentage of the reference compound),[4]; [20],71%
same,"Activity of hERG with peptide, expressed as a percentage of the reference compound",[5]; peptide at 0.2 μM,84%
same,Activity of hERG with peptide (percentage of the reference compound),[5]; peptide at 20 μM,65%
same,"Activity of Nav1.5 with peptide, expressed as a percentage of the reference compound",[6]; [21],110%
same,"Activity of Nav1.5 with peptide, expressed as a percentage of the reference compound",[6]; [22],109%
same,Activity of Nav1.5 with peptide (percentage of the reference compound),[6]; [21],107%
same,Activity of Nav1.5 with peptide (percentage of the reference compound),[6]; [22],112%
same,"Activity of Kv1.1 with peptide, expressed as a percentage of the reference compound",[7]; peptide at 0.2 μM,82%
same,Activity of Kv1.1 with peptide (percentage of the reference compound),[7]; peptide at 20 μM,101%
same,"Activity of Kv1.3 with peptide, expressed as a percentage of the reference compound",[8]; peptide at 0.2 μM,96%
same,Activity of Kv1.3 with peptide (percentage of the reference compound),[8]; peptide at 20 μM,93%
same,"Activity of Kv1.2 with peptide, expressed as a percentage of the reference compound",[9]; peptide at 0.2 μM,91%
same,Activity of Kv1.2 with peptide (percentage of the reference compound),[9]; peptide at 20 μM,87%
same,"Activity of a3b4 with peptide, expressed as a percentage of the reference compound",[10]; peptide at 0.2 μM,95%
same,Activity of a3b4 with peptide (percentage of the reference compound),[10]; peptide at 20 μM,87%
same,"Activity of TRPV1 with peptide, expressed as a percentage of the reference compound",[11]; peptide at 0.2 μM,103%
same,Activity of TRPV1 with peptide (percentage of the reference compound),[11]; peptide at 20 μM,69%
same,"Activity of TRPA1 with peptide, expressed as a percentage of the reference compound",[12]; peptide at 0.2 μM,106%
same,Activity of TRPA1 with peptide (percentage of the reference compound),[12]; peptide at 20 μM,92%
same,"Activity of Cav2.2 with peptide, expressed as a percentage of the reference compound",[13]; peptide at 0.2 μM,114%
same,Activity of Cav2.2 with peptide (percentage of the reference compound),[13]; peptide at 20 μM,87%
same,"Activity of Kv2.1 with peptide, expressed as a percentage of the reference compound",[14]; peptide at 0.2 μM,104%
same,Activity of Kv2.1 with peptide (percentage of the reference compound),[14]; peptide at 20 μM,92%
same,"Activity of Cav2.1 with peptide, expressed as a percentage of the reference compound",[15]; peptide at 0.2 μM,96%
same,Activity of Cav2.1 with peptide (percentage of the reference compound),[15]; peptide at 20 μM,102%
same,"Activity of NR2B with peptide, expressed as a percentage of the reference compound",[16]; peptide at 0.2 μM,109%
same,Activity of NR2B with peptide (percentage of the reference compound),[16]; peptide at 20 μM,96%
same,"Activity of Kir2.1 with peptide, expressed as a percentage of the reference compound",[17]; peptide at 0.2 μM,108%
same,Activity of Kir2.1 with peptide (percentage of the reference compound),[17]; peptide at 20 μM,91%
same,"Activity of NR2A with peptide, expressed as a percentage of the reference compound",[18]; peptide at 0.2 μM,115%
same,Activity of NR2A with peptide (percentage of the reference compound),[18]; peptide at 20 μM,103%

# From patent US20200262877A1, “ION CHANNEL-BINDING PEPTIDES AND METHODS OF USE THEREOF” (priority 2017, published 2020)
